From US20210063414A1, “METHODS FOR PREVENTING AND/OR TREATING BONE LOSS CONDITIONS BY MODULATING IRISIN” (Dana-Farber Cancer Institute, Inc., priority 2018, published 2021) come the findings set out here.

Common to all, as to test: Crosslinking/co-immunoprecipitation/mass spectrometry (TMT quantitative proteomics) to identify irisin receptors
Format in all cases: binding

Assay [1] addresses T1, MLO-Y4 cell surface proteins (Mus musculus, UniProt P41216).
T1 construct: endogenous in cells; host or cells: MLO-Y4
T1 sequence (P41216 1-699): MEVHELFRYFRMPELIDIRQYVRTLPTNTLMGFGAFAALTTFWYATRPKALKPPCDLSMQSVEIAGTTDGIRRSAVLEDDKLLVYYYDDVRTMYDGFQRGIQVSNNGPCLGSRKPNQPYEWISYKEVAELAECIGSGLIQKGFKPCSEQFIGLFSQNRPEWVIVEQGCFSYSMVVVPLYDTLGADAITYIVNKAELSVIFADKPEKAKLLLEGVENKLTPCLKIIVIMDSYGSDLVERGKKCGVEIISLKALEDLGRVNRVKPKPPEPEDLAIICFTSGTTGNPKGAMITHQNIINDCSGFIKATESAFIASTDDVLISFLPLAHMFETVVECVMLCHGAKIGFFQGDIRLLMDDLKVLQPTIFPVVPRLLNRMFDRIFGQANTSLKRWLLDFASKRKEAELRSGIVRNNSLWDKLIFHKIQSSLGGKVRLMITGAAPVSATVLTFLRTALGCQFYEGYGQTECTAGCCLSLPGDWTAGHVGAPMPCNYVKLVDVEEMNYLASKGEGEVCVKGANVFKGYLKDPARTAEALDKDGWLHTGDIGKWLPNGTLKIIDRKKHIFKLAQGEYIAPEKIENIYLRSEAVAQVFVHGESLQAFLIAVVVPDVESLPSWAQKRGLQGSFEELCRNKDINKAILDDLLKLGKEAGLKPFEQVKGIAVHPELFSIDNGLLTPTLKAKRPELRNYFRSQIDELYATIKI
Conditions: co-precipitated protein Acsl1 (ACSL1_MOUSE). In outline: (§1)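 Relative protein abundance came from 6-plex TMT MS3 quantitation on an Orbitrap Fusion Lumos, after in-gel trypsin digestion of Coomassie-stained SDS-PAGE lanes. Input was a Ni-NTA pulldown (250 mM imidazole elution) of lysates from murine MLO-Y4 cells. These cells were treated on ice with His-tagged irisin or adipsin (10 nM, 20 min) in serum-free medium, then crosslinked with 1.5 mM DTSSP for 30 min.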

For assay [2], the target named is T2, MLO-Y4 cell surface proteins (Mus musculus, UniProt Q99LC5).
T2 construct: endogenous in cells; host or cells: MLO-Y4
T2 sequence (Q99LC5 20-333): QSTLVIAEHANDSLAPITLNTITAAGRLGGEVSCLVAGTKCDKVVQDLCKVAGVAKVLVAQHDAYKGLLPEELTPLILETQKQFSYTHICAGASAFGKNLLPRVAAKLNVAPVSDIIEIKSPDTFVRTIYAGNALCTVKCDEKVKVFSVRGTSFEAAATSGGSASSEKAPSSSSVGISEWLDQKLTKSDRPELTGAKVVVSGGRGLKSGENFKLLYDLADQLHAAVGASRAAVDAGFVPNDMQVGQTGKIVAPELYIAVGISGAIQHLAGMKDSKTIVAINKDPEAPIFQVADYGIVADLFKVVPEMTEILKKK
The following applies: co-precipitated protein Etfa (ETFA_MOUSE). In outline: as §1

Assay [3] deals with T3, MLO-Y4 cell surface proteins (Mus musculus, UniProt O35143).
T3 construct: endogenous in cells; host or cells: MLO-Y4
T3 sequence (O35143 26-106): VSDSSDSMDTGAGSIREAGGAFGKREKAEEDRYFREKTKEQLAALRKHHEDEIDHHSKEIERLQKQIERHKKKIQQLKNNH
The following applies: co-precipitated protein Atpif1 (ATIF1_MOUSE). An outline of the steps:
as §1

In the case of adipsin, the figures for the TMT signal-to-noise ratio in assay [1], in assay [2] and in assay [3] were 361.33, 80.1458 and 454.155, respectively.
